Target: 4-HIL dehydrogenase (HILDH) from Bacillus thuringiensis 2e2, wild type (Bacillus thuringiensis 2e2)
Experiment: crystal structure; HILDH with 10 mM NADH, sitting-drop vapor diffusion at 20 °C, 30% PEG 400, 0.1 M acetate pH 4.5, 0.2 M calcium acetate; 2.20 Å

- stoichiometry N: 4
Substance: 4-HIL dehydrogenase (HILDH) from Bacillus thuringiensis 2e2, wild type (enzyme)
